Test results reported in US20090081219A1 (Genmab, published 2009).

Key:
[1] = molecular target: T1, recombinant human CD25 (rhCD25), NS/0-expressed recombinant protein from R&D Systems (cat#223-2A/CF) (human, UniProt P01589 22-213, limits assumed); experiment: competition ELISA on coated rhCD25 (100 ng/ml); antibody supernatant added 10 min before rIL-2-biotin (50 ng/ml); streptavidin-poly-HRP/ABTS, OD405; blocked ligand: biotinylated IL-2
T1 construct: Coated on ELISA plates, and amine-coupled to a CM-5 chip for SPR; also called hrCD25; soluble CD25
T1 sequence (looked up): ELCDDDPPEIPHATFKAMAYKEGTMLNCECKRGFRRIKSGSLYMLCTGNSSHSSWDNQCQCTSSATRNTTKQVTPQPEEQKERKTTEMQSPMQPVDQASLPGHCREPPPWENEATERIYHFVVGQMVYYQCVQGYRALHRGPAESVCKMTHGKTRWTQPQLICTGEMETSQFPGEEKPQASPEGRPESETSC
Procedure: After washing (3×) the plates with PBST, 100 μl of sample antibody (concentration range: 10, 33, and 100 ng/ml) was added. […] After washing the plates 3× (in PBST), plates were incubated with streptavidin-poly-HRP (dilute 1:10,000 from stock) in PBS, and 100 μl was added to each well (1 hour, RT). After washing the plates (3× in PBST), 10 mg ABTS (Roche) per 10 ml ABTS buffer (Roche) was made and 100 μl added to each well.

[2] = molecular target: T1, recombinant human CD25 (rhCD25), …; experiment: SPR, BIAcore 3000, 25 C; rhCD25 amine-coupled to CM-5 chip at low density, antibody as analyte, 1:1 Langmuir model
Procedure: Affinity analyses were assessed by monitoring changes in surface plasmon resonance using a BIAcore 3000 instrument. A BIAcore 3000 and BIAcore 3000 software control (BIAcore, Uppsala, Sweden, lot#BR-1100-43) was used. […] After blocking the residual binding sites of the activated sensor chip using ethanol-amine-HCl, a kinetic analysis was performed at 25° C. […] The results were visualized using a BIAcore 3000 (Bio-tek Instruments) and analyzed using the BIAevaluation Software 3.1 (BIAcore, Uppsala, Sweden) and Languir binding 1:1 was used as pre-fixed model.

Binder | binding result [1] | Kd [2]
human monoclonal antibody AB1 (antibody, human IgG1, V domains shown, Human IgG1,kappa from a hybridoma (HuMAb mouse)) VH: QVQLVQSGAEVKKPGSSVKVSCKASGGTFSRYPINWVRQAPGQGLEWMGRIIPILGIADYAQRFQGRVTITADKSTNTAYMELSSLRSEDTAVYYCARRDWGDYWGQGTLVTVSS VL: not shown | binds | 
human monoclonal antibody AB7 (antibody, V domains shown, Human IgG1,kappa from a hybridoma (HuMAb mouse)) VH: QVQLVQSGAEVKKPGSSVKVSCKASGGTFSRYAINWVRQAPGQGLEWMGRIIPILDIADYAQKFQDRVTITADKSTNTAYMELSSLRSEDTAVYYCARKDWFDPWGQGTLVTVSS VL: not shown | binds | 
human monoclonal antibody AB12 (antibody, V domains shown, Human IgG1,kappa from a hybridoma (HuMAb mouse); also called AB12-FITC; FITC-labeled AB12) VH: QVQLVQSGAEVKKPGSSVKVSCKASGGTFSRYIINWVRQAPGQGLEWMGRIIPILGVENYAQKFQGRVTITADKSTSTAYMELSSLRSEDTAVYYCARKDWFDYWGQGTLVTVSS VL: not shown |  | 0.0474 nM
human monoclonal antibody AB11 (antibody, human IgG1, V domains shown, Human IgG1,kappa from a hybridoma (HuMAb mouse)) VH: QVQLVQSGAEVKKPGSSVKVSCKASGGTFSRYPINWVRQAPGQGLEWMGRIIPILGIADYAQRFQGRVTITADKFTNTAYMELSSLRSEDTAVYYCARRDWGDYWGQGTLVTVSS VL: not shown | binds | 
